According to patent US20160052996A1 (NEURIMMUNE, published 2016):
Changes are numbered by the printed parent chain.

B1: NI-307.57D4 (antibody, V domains shown)
VH: EVQLVESGGGLVQPGRSLRLSCAASGFTFDHYAMHWVRQVPGRGLEWVSGVTWNSGIIGYADSVKGRFTISRDNAKNSLYLQMTSLRAEDTALYYCAKGTNDFVSYGLDVWGQGTTVTVSS
VL: QSVLTQPPSVSGAPGQRVSISCTGTSSNLGAGFDVHWYQQIPRKAPELLIYGNSIRPSGVPDRFSGSKSGTSASLAITGLQAEDEADYYCQSYDSRLSGSVFGGGTKLTVL
B2: NI-307.72F10 (antibody, V domains shown)
VH: EVQLVESGGGVVQPGRSLRLSCATSGFTFDDYAMHWVRQAPGKGLEWVSGLTWSSSGVGYADSVKGRFTISRDNAKNSLYLQMNSLRAEDTALYYCAKGSGEWLRLGQDYWGQGTLVTVSS
VL: QSVLTQPPSVSGTPGQRVTISCTGSSSNIGAGYDVHWYQQLPGTAPKLLIYDNSNRPSGVPDRFSGSKSGTSASLAITGLQAEDEAHYYCQSFDSSLSGSVFGGGTKLAVL
B3: NI-307.105A6 (antibody, V domains shown)
VH: EVQLVESGGGLVQPGRSLRLSCAASGFTFDDYAMHWVRQAPGKGLEWVSGITWNSGSIGYADSVKGRFTISRDNAKNSLYLQMNSLSAEDTALYYCAKGARDYLSYGMDVWGQGTTVTVSS
VL: B2 VL with L4V, T13A, Y51F, D52S, S54T, N55I, H87N, F93Y, A109T
B4: NI-307.27C11 (antibody, V domains shown)
VH: QVQLQESGPGLVKPSGTLSLTCAVSGDSISSSNWWSWVRQPPGKGLEWIGEIYHSGGTKYNPSLKSRVTISVDKSKNHFSLKLRSVTAADTAVYYCARNRWFDNNRGGYYYYGMDVWGQGTTVTVSS
VL: DIQMTQSPSSLSASVGDRVTITCRASQGISSYLNWYQQKPGKAPKLLISATSDLQSGVPSRFSGSGSGTDFTLTISSLQPEDFATYYCQQSYSTPYTFGQGTKLEIK
B5: NI-307.50H4 (antibody, V domains shown)
VH: B4 VH with G45R, T122M
VL: B4 VL with S26G, S31T, K45N, S49Y, S93N, T94N, L104V
B6: NI-307.59A7 (antibody, V domains shown)
VH: EVQLVESGGGLVQPGGSLRLSCAASGFTFSSYEMNWVRQAPGKGLEWVSYISSSGTNIYHADSVKGRFTISRDNAKNSLYLQMNSLRAEDTAVYYCARDGPSPRGHNYGHDYWGQGTLVTVSS
VL: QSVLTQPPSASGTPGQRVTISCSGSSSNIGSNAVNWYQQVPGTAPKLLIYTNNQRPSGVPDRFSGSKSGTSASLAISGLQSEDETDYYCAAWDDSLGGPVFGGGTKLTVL
B7: NI-307.27C2 (antibody, V domains shown)
VH: EVQLVESGGGLVKPGGSLRLSCAASGFTFSSYTMNWVRQAPGKGLQWVSSISSSSTYMYYGDSVKGRFTISRDNARNSLYLQMNSLRVEDTAVYYCARYAHDWNVDYWGQGTLVTVSS
VL: QSVLTQPPSASGTPGQRVTISCSGGSSNIGSNPVNWFQQFPGTAPKLLIYANTQRPSGVPDRFSGSKSGTSVSLAISGLQSEDEGDYHCAAWDDSLKGWVFGGGTKLTVL
B8: NI-307.56A8 (antibody, V domains shown)
VH: B7 VH with T33R, Q46E, T56S, M58I, R76K, N84S, V88A, V105I
VL: not shown
B9: NI-307.29B1 (antibody, V domains shown)
VH: EVQLVESGGGLVKPGGSLRLSCAASGITFQYYAMNWVRQAPGKGLEWVSSIGGRGDTTYYTDSVKGRFTISRDNSKSTLYLQMNSLRAEDTAVYYCAKEPFDSSGDHRGVFDYWGQGTLVTVSS
VL: QSVVTQPPSVSGAPGQRVTISCAGSRSNIGAGYDVNWYQQLPRTAPKLLIYDNTRRPSGVPARFSGSKSGSSASLTITGLQAEDEADYYCQSYDSKLNKVFGGGTKLTVL
B10: NI-307.47B11 (antibody, V domains shown)
VH: EVQLVESGGGLVKPGGSLRLSCAASGFTFSDYYMNWIRQAPGKGLEWLSCISSSGNTIYYADSVKGRFTISRDNAKNSLYLQMNSLRAEDTAVYYCARDLDKAATGRPYFDYWGQGTLVTVSS
VL: not shown
B11: NI-307.98H1 (antibody, V domains shown)
VH: QLQLQESGPGLVKPSQTLSLTCAVSGASISSGTYYWGWIRQHPGKGLEWIGYIYPSGSTYYNPSLKSRVIISLDTSKSQFSLNLSSVTAADTAVYYCARDYYDSSGHMGGYYHYAMDVWGQGTTVTVSS
VL: DIQLTQSPSSLSASVGDRVTITCRASQSISSHLNWYQQKPGKVPKLLIYAASTLQSGVPSRFSGSGSGTDFTLAISSLQPADFATYYCQQSYSTPRTFGQGTKVDIK
B12: NI-307.45E10 (antibody, V domains shown)
VH: EVQLVESGGGLVQPGGSLRLSCAASGFSFRFYAMNWVRQAPGKGLEYVSGISGGGGTTYYADSVKGRFTISRDNSKNTLYLQMKSLRAEDTAIYYCAKDQSYCSGAGCHPYYLDYWGQGTLVTVSS
VL: SYVLTQPPSVSVAPGQTARITCGGNNIGSKSVHWYQQKPGQAPVVVVYDDSGRPSGMPERFSGSNSGNTATLTISRVEAGDEADYYCQVWDSSSDHLYVFGTGTKVTVL
B13: NI-307.105C7 (antibody, V domains shown)
VH: B12 VH with R30G, I51V, T57S, A106G, G107S
VL: B12 VL with M57I, L97P
B14: NI-307.72F7 (antibody, V domains shown)
VH: EVQLVESGGGLVQPGGSLRLSCAASGFTFSSYEMNWVRQAPGKGLEWISYISSRGSTIHYADSVKGRFTISRDDAKNSLYLQMNSLRAEDTAIYYCARDRYDFWSGCIKGCYYGMDVWGQGSTVTVSS
VL: EIVLTQSPGTLSLSPGQRATLSCRASQSISSSYLAWYQQRRGQAPRLLIYGASSRATGIPDRFSGSGSGTDFTLTISRLEPEDFAVYYCQHYGTTLTFGQGTKVDIK
B15: NI-307.53B11 (antibody, V domains shown)
VH: EVQLVQSGAEVKKPGESLKISCKGSGYSFTSYWIGWVRQMPGKGLEWMGIIYPGDSDTRYSPSFQGQVTISADKSITTAYLQWSSLKASDTALYYCARRGSGSFSNYDFWGQGTLVTVSS
VL: QSALTQPRSVSGSPGQSVTISCTGTSSDVGAYNYVSWYQQHPVKAPKLMIYDVSKRPSGVPDRFSGSRSGNTASLTISGLQADDEADYYCCSYAGTYTVLFGGGTKLTVL
B16: NI-307.43E8 (antibody, V domains shown)
VH: EVQLVESGGDVVQPGRSLRLSCAASGFAFSIYAMNWVRQAPGKGLEWVALISTSGTEHYADSVKGRFTISRDNSKNTLFLQINSLRVEDTAVYYCARDLDSTGYYENNYWGQGTLVTVSS
VL: DVVMTQSPLSSPVSLGQPASISCRSSHSLVHSNGDTYLSWLQQRPGQPPRLLIYKISNRFSGVPDRFSGSGAGTDFTLKISRVEAEDVGVYFCMQATSFPRTFGQGTKVEIK
B17: NI-307.26A3 (antibody, V domains shown)
VH: EVQLVESGGVLVQPGGSLRLSCAASGFTFSSYAMTWVRQAPEKGLEWVSTIIGNGAYTYYADSVKGRFTISRDNSKNTLILQMNSLRADDAAVYYCAKGTELAPYYYYFALDVWGQGTTVTVSS
VL: EIVLTQSPGTLSLSPGERATLSCRASQSISSSHLAWYQQKPGQAPRLLIYGASSRATGIPDRFSGGGSGTDFTLTITRLEPEDFAVYYCQQYGSSPYTFGQGTKLEIK

Molecular target: T1, JCV VP1 VLP (JC virus (JCV), Mad-1 strain, UniProt P03089 1-354)
T1 construct: also called JCV VP1 VLPs; JCV VP1 (coating with reassociation buffer)
Assay: direct ELISA, plate coated with antigen at 5 µg/ml in reassociation buffer (VLP); EC50 by non-linear regression (GraphPad Prism)

Binder | EC50 [nM]
B1 | 0.053
B2 | 0.031
B3 | 0.069
B4 | 0.042
B5 | 0.055
B6 | 0.066
B7 | 0.052
B8 | 0.041
B9 | 0.076
B10 | 0.048
B11 | 0.086
B12 | 0.024
B13 | 0.04
B14 | 0.019
B15 | 0.064
B16 | 0.64
B17 | 0.049
